Test [1] concerns the target RAB7B peptide … presented by HLA-A*11:01 (human). Briefly: cell-based or functional assay.
Test [2] deals with T1, KRAS G12V (same sequence in NRAS G12V and HRAS G12V) peptide on HLA-A*11:01 (human).
T1 peptide: VVGAVGVGK
Briefly: stated without data.

For test [3], the target named is KRAS G12V 8-16 9mer peptide … presented by HLA-A*11:01 (human). Briefly: cell-based or functional assay.
Test [4] addresses KRAS G12V 7-16 10mer peptide … presented by HLA-A*11:01 (human). Briefly: cell-based or functional assay.

B1: TCR 11N4A (TCR, V domains shown)
V domain 1: DQQVKQNSPSLSVQEGRISILNCDYTNSMFDYFLWYKKYPAEGPTFLISISSIKDKNEDGRFTVFLNKSAKHLSLHIVPSQPGDSAVYFCAASGVSGNTPLVFGKGTRLSVIA
V domain 2: GVTQTPRYLIKTRGQQVTLSCSPISGHRSVSWYQQTPGQGLQFLFEYFSETQRNKGNFPGRFSGRQFSNSRSEMNVSTLELGDSALYLCASSVGTVEQYFGPGTRLTVTE
As to B1, the “EC50, CD137 expression, sort-purified TCR 11N4A-transduced T cells, peptide titration” value in test [1] was roughly 35 µg/mL.

B2: TCR 11N6 (TCR, V domains shown)
Valpha: QQGEEDPQALSIQEGENATMNCSYKTSINNLQWYRQNSGRGLVHLILIRSNEREKHSGRLRVTLDTSKKSSSLLITASRAADTASYFCATDPMNTNAGKSTFGDGTTLTVKP
Vbeta: GVAQSPRYKIIEKRQSVAFWCNPISGHATLYWYQQILGQGPKLLIQFQNNGVVDDSQLPKDRFSAERLKGVDSTLKIQPAKLEDSAVYLCASSPYGGSVSYEQYFGPGTRLTVT
As for B2, the binding result in test [2] is “recognises”.

B3: TCR 11N4A (TCR)
TCR alpha: QQKNDDQQVKQNSPSLSVQEGRISILNCDYTNSMFDYFLWYKKYPAEGPTFLISISSIKDKNEDGRFTVFLNKSAKHLSLHIVPSQPGDSAVYFCAASGVSGNTPLVFGKGTRLSVIANIQNPDPAVYQLRDSKSSDKSVCLFTDFDSQTNVSQSKDSDVYITDKCVLDMRSMDFKSNSAVAWSNKSDFACANAFNNSIIPEDTFFPSPESSCDVKLVEKSFETDTNLNFQNLSVIGFRILLLKVAGFNLLMTLRLWSS
TCR beta: GVTQTPRYLIKTRGQQVTLSCSPISGHRSVSWYQQTPGQGLQFLFEYFSETQRNKGNFPGRFSGRQFSNSRSEMNVSTLELGDSALYLCASSVGTVEQYFGPGTRLTVTEDLKNVFPPEVAVFEPSEAEISHTQKATLVCLATGFYPDHVELSWWVNGKEVHSGVCTDPQPLKEQPALNDSRYCLSSRLRVSATFWQNPRNHFRCQVQFYGLSENDEWTQDRAKPVTQIVSAEAWGRADCGFTSESYQQGVLSATILYEILLGKATLYAVLVSALVLMAMVKRKDSRG
As to B3, the figures for the EC50, CD137 surface expression assay (functional avidity), TCR 11N4A in primary human CD8+ T cells in test [3] and in test [4] were 0.0595 nM and 18.8 nM, respectively. Besides, the percent of T cells responding (CD137), peptide titration in test [3] is greater than 80%.

The record behind these values is patent publication US20250177531A1 (FRED HUTCHINSON CANCER CENTER, published 2025).
